Source: patent US7390643B2, “Geranyl diphosphate synthase molecules, and nucleic acid molecules encoding same” (Washington State University Research Foundation, priority 2002, dated 2008)
Entries after “also recorded” stand apart in the source; their conditions may differ.

B1: AgGPPS1: recombinant geranyl diphosphate synthase from Grand fir (Abies grandis), truncated, His6-tagged, SEQ ID NO:16 (protein)
chain: MFDFKEYLHSKAISVNEALERAVPLRYPEKIHEAMRYSLLAGGKRIRPILTIAACELVGGSEELAMPTACAMEMIHTMSLIHDDLPSMDNDDLRRGKLTNHKVFGEGTAVLAGDALLSFAFEHIAVSTRKTVASHRVLRVVSELGKAIGSQGVAGGQVADITSEGDPSVGLETLEWIHIHKTAVLLECAVVSGAIIGGASENEIERTGRYARCVGLLFQVVDDILDVTRSSEELGKTAGKDLVSDKATYPKLMGLEKAKEFADELLDRAKEELSCFNPAKAAPLLGLADYIALRQNLEHHHHHH
modifications: His6 tag; Abies Grandis
B2: GGPPS: recombinant geranylgeranyl diphosphate synthase from grand fir, truncated, His6-tagged, SEQ ID NO:26 (protein)
chain: MFDFKEYLRSKAMAVNEALDRAVPLRYPERIHEAMRYSLLAGGKRVRPVLCISACELVGGTEEVAMPTACAMEMIHTMSLIHDDLPCMDNDDFRRGKPTNHKVFGEGTAILAGDALLSFAFEHIAVSTSKSVGTDRILRVVSELGRTIGSQGLVGGQVADITSEGDASVDLDTLEWIHIHKTAVLLECSVMCGAIISGASDNEIERIQRYARSVGLLFQVVDDILDVTKSSKELGKTAGKDLISDKATYPKLMGLEKAKQFASDLLIRAKEDLSCFDPMKAAPLLGLADYIAFRQNLEHHHHHH
modifications: His6 tag; Abies Grandis
B3: AgGPPS3: recombinant geranyl diphosphate synthase from Grand fir (Abies grandis), truncated, His6-tagged, SEQ ID NO:20 (protein)
chain: MFDFNKYMLSKAMAVTEALDKAIPHSYPQKIHESMRYSLLAGGKRVRPVLCIAACELVGGREELAMPTACAMEMIHTMSLIHDDLPCMDNDDLRRGKPTNHKVFGQDTALLAGDALHAFAFEHIVAFTSKSVGSDGILRAVTELARATGPQGIMGGQIVDIASERDAFVDLQTLEWIHIHKTAVLFECATVCGAIIGGASGDEIERIRRFARYLGLLFQVVDDILDVTKSSEDLGKTAGKDLVSDKATYPKLMGLEKAKGFSLELLNKAKEELSCFDPMKAAPLFGLADYMALRQNLEHHHHHH
modifications: His6 tag; Abies Grandis
B4: AgGPPS2: recombinant geranyl diphosphate synthase from Grand fir (Abies grandis), truncated, His6-tagged, SEQ ID NO:12 (protein)
chain: MFDFNKYMDSKAMTVNEALNKAIPLRYPQKIYESMRYSLLAGGKRVRPVLCIAACELVGGTEELAIPTACAIEMIHTMSLMHDDLPCIDNDDLRRGKPTNHKIFGEDTAVTAGNALHSYAFEHIAVSTSKTVGADRILRMVSELGRATGSEGVMGGQMVDIASEGDPSIDLQTLEWIHIHKTAMLLECSVVCGAIIGGASEIVIERARRYARCVGLLFQVVDDILDVTKSSDELGKTAGKDLISDKATYPKLMGLEKAKEFSDELLNRAKGELSCFDPVKAAPLLGLADYVAFRQNLEHHHHHH
modifications: His6 tag; Abies Grandis

Tests used:
[1] = system: recombinant GPP synthases from grand fir; assay: Kinetic evaluation, standard prenyltransferase assay with purified recombinant His6-tagged GPP synthases; assay type: biochemical, Abies grandis
Protocol: Molecular weight determination and kinetic evaluation. The molecular weight of GPP synthase was determined by gel filtration chromatography on a calibrated XK 16/70 column of Superdex 200 (Amersham Biosciences) as previously described (C. Burke and R. Croteau, J. Biol. Chem. 277:3141-3149, 2002). For kinetic evaluation, the standard prenyltransferase assay was performed (C. Burke and R. Croteau, J. Biol. Chem. 277:3141-3149, 2002) but the reaction was terminated after 4 min. to ensure linearity in the rate measurements. For preparative incubations, the reaction time was extended to 8 min., and all assays contained from 0.25 to 1.0 μg of purified protein.
Kinetic characterization of the GPP synthases (SEQ ID NOS:12, 16, and 20). To compare substrate binding behavior and turnover rates of these grand fir GPP synthases (SEQ ID NOS:12, 16, and 20) to those of the Mentha synthase, kinetic constants were determined (Table 1).

[2] = system: presumptive prenyltransferases (GPP synthases and GGPP synthase) from grand fir; assay: Product determination and co-substrate selectivity assay ([4-14C]IPP plus allylic co-substrate, MgCl2; radio-GC of hydrolysed products); assay type: biochemical, Abies grandis; details: for product formed: radio-GC; for rate with GPP as allylic co-substrate in the production of FPP, relative to the rate with DMAPP: standard assay conditions
Text: Protein purification and product determination. The affinity-based purification procedure for His-tagged proteins has been described previously, as has the standard purification protocol for the corresponding non-tagged proteins (C. Burke and R. Croteau, J. Biol. Chem.277:3141-3149, 2002). The partial purification procedure for the native GPP synthase from A. grandis has also been reported previously (D. Tholl et al., Arch. Biochem. Biophys. 386:233-242, 2001). Procedures for polyclonal antibody preparation were as described previously (C. C. Burke et al., Proc. Natl. Acad. Sci. USA 96:13062-13067, 1999), in this case using the SDS-PAGE purified AgGPPS3 protein (SEQ ID NO:7) as antigen. The assay procedures and methods for product analysis were similar to those previously described (C. Burke and R. Croteau, J. Biol. Chem. 277:3141-3149, 2002), except that for radio-GC a Raga (Raytest) radio-detector connected in-line to a Series 600 (Gow-Mac) chromatograph was employed with a 5% phenyl polysiloxane (ZB-5; Phenomenex) capillary column under hydrogen gas flow (70° C. for 5 min. followed by an 8° C. per min. ramp to 240° C. for 5 min).
As might be expected based on prior experience, the full-length (preprotein) versions of these enzymes (SEQ ID NOS:3, 5, 7 and 22) were not efficiently expressed in soluble form and the bulk of the protein generated was in inclusion bodies. However, the truncated versions of these enzymes with the appended C-terminal His6-tag (SEQ ID NOS:12, 16, 20 and 26) readily afforded soluble protein that was affinity purified to >90% in amounts up to 6 mg/L. To define the function of these presumptive prenyltransferases, assays were conducted with the purified proteins (SEQ ID NOS:12, 16, 20 and 26) using [4-^14C]IPP and DMAPP as co-substrates and MgCl2 as cofactor. The resulting products were enzymatically hydrolyzed to the corresponding alcohols and analyzed by radio-GC. […] His-tagged AgGPPS1 (SEQ ID NO:16) and AgGPPS3 (SEQ ID NO:20) were able to accept GPP as the allylic co-substrate (110% the rate with DMAPP under standard assay conditions) in the production of FPP, and His-tagged AgGPPS3 (SEQ ID NO:20) could also efficiently utilize FPP as allylic co-substrate in the formation of GGPP (at about 50% the rate with DMAPP as co-substrate).

[3] = [4-14C]IPP and DMAPP as co-substrates, MgCl2 as cofactor

| Molecule | KM(DMAPP) compared with the Mentha enzyme [1] | turnover rate compared with AgGPPS3 [1] | product formed [2, 3] | rate with GPP as allylic co-substrate in the production of FPP, relative to the rate with DMAPP [2] | rate with FPP as allylic co-substrate in the formation of GGPP, relative to the rate with DMAPP [2] | farnesyl diphosphate produced [2, 3] | turnover rate compared with the heterotetrameric Mentha GPP synthase [1] | allylic co-substrate utilised [2] |
| --- | --- | --- | --- | --- | --- | --- | --- | --- |
| B1 | two-fold higher | four fold higher | geranyl diphosphate as the major product | 110% | – | – | – | – |
| B2 | – | – | predominately geranylgeranyl diphosphate as product with trace amounts of geranyl diphosphate | – | – | – | – | – |
| B3 | – | – | geranyl diphosphate as the major product | 110% | about 50% | about 30% | – | – |
| B4 | – | four fold higher | geranyl diphosphate as the major product; also recorded: only GPP | – | – | – | three-fold lower | only DMAPP |
